Reference: US20120034160A1 (AbbVie / Abbott, published 2012)

T1: Recombinant Human IL-17 (human, UniProt Q16552 20-155, limits assumed)
T1 sequence (looked up): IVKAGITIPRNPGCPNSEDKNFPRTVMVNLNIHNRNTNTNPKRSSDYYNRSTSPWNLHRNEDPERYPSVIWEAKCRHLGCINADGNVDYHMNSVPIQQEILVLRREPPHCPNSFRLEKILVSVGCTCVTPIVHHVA


Key:
Recombinant Human IL-1β = Recombinant Human IL-1β (human, UniProt P01584 117-269); assay: cell-based or functional assay
Recombinant Human IL-17 = target: T1, Recombinant Human IL-17; assay: cell-based or functional assay

Binder | N-Terminal VD IL-1β Neutralization Assay EC50 (Recombinant Human IL-1β) [nM] | C-terminal VD IL-17 Neutralization Assay EC50 (Recombinant Human IL-17) [nM] | C-Terminal VD IL-1β Neutralization Assay EC50 (Recombinant Human IL-1β) [nM] | N-terminal VD IL-17 Neutralization Assay EC50 (Recombinant Human IL-17) [pM]
DVD1597 (bispecific antibody, human IgG1, kappa) heavy: not shown light: ETTVTQSPSSLSASVGDRVTITCITSTDIDVDMNWYQQKPGKPPKLLISQGNTLRPGVPSRFSSSGSGTDFTFTISSLQPEDFATYYCLQSDNLPLTFGQGTKLEIKRTVAAPSVFIFPPDIQMTQSPSSLSASVGDRVTITCRASSGIISYIDWFQQKPGKAPKRLIYATFDLASGVPSRFSGSGSGTDYTLTISSLQPEDFATYYCRQVGSYPETFGQGTKLEIKRTVAAPSVFIFPPSDEQLKSGTASVVCLLNNFYPREAKVQWKVDNALQSGNSQESVTEQDSKDSTYSLSSTLTLSKADYEKHKVYACEVTHQGLSSPVTKSFNRGEC | 0.326 | 0.0008 |  | 
DVD1598 (bispecific antibody, human IgG1, kappa) heavy: not shown light: DIQMTQSPSSLSASVGDRVTITCRASSGIISYIDWFQQKPGKAPKRLIYATFDLASGVPSRFSGSGSGTDYTLTISSLQPEDFATYYCRQVGSYPETFGQGTKLEIKRTVAAPSVFIFPPETTVTQSPSSLSASVGDRVTITCITSTDIDVDMNWYQQKPGKPPKLLISQGNTLRPGVPSRFSSSGSGTDFTFTISSLQPEDFATYYCLQSDNLPLTFGQGTKLEIKRTVAAPSVFIFPPSDEQLKSGTASVVCLLNNFYPREAKVQWKVDNALQSGNSQESVTEQDSKDSTYSLSSTLTLSKADYEKHKVYACEVTHQGLSSPVTKSFNRGEC |  |  | 11.9 | 5.3
DVD1605 (bispecific antibody, human IgG1, kappa) heavy: not shown light: DTVVTQSPAFLSVTPGEKVTITCITSTDIDVDMNWYQQKPDQPPKLLISQGNTLRPGVPSRFSSSGSGTDFTFTISSLEAEDAATYYCLQSDNLPLTFGQGTKLEIKRTVAAPSVFIFPPEIVLTQSPDFQSVTPKEKVTITCRASQDIGSELHWYQQKPDQPPKLLIKYASHSTSGVPSRFSGSGSGTDFTLTINGLEAEDAGTYYCHQTDSLPYTFGPGTKVDIKRTVAAPSVFIFPPSDEQLKSGTASVVCLLNNFYPREAKVQWKVDNALQSGNSQESVTEQDSKDSTYSLSSTLTLSKADYEKHKVYACEVTHQGLSSPVTKSFNRGEC | 0.242 | 0.0082 |  | 
DVD1604 (bispecific antibody, human IgG1, kappa) heavy: not shown light: EIVLTQSPDFQSVTPKEKVTITCRASQDIGSELHWYQQKPDQPPKLLIKYASHSTSGVPSRFSGSGSGTDFTLTINGLEAEDAGTYYCHQTDSLPYTFGPGTKVDIKRTVAAPSVFIFPPDTQVTQSPSSLSASVGDRVTITCITSTDIDVDMNWYQQKPGKPPKLLISQGNTLRPGVPSRFSSSGSGTDFTFTISSLQPEDFATYYCLQSDNLPLTFGQGTKLEIKRTVAAPSVFIFPPSDEQLKSGTASVVCLLNNFYPREAKVQWKVDNALQSGNSQESVTEQDSKDSTYSLSSTLTLSKADYEKHKVYACEVTHQGLSSPVTKSFNRGEC |  |  | 2.03 | 3.1
DVD1608 (bispecific antibody, human IgG1, kappa) heavy: not shown light: EIVLTQSPDFQSVTPKEKVTITCRASQDIGSELHWYQQKPDQPPKLLIKYASHSTSGVPSRFSGSGSGTDFTLTINGLEAEDAGTYYCHQTDSLPYTFGPGTKVDIKRTVAAPSVFIFPPETTVTQSPSSLSASVGDRVTITCITSTDIDVDMNWYQQKPGKPPKLLISQGNTLRPGVPSRFSSSGSGTDFTFTISSLQPEDFATYYCLQSDNLPLTFGQGTKLEIKRTVAAPSVFIFPPSDEQLKSGTASVVCLLNNFYPREAKVQWKVDNALQSGNSQESVTEQDSKDSTYSLSSTLTLSKADYEKHKVYACEVTHQGLSSPVTKSFNRGEC |  |  | 4.25 | 8.2
DVD1603 (bispecific antibody, human IgG1, kappa) heavy: not shown light: DTQVTQSPSSLSASVGDRVTITCITSTDIDVDMNWYQQKPGKPPKLLISQGNTLRPGVPSRFSSSGSGTDFTFTISSLQPEDFATYYCLQSDNLPLTFGQGTKLEIKRTVAAPSVFIFPPEIVLTQSPDFQSVTPKEKVTITCRASQDIGSELHWYQQKPDQPPKLLIKYASHSTSGVPSRFSGSGSGTDFTLTINGLEAEDAGTYYCHQTDSLPYTFGPGTKVDIKRTVAAPSVFIFPPSDEQLKSGTASVVCLLNNFYPREAKVQWKVDNALQSGNSQESVTEQDSKDSTYSLSSTLTLSKADYEKHKVYACEVTHQGLSSPVTKSFNRGEC | 0.0803 | 0.0407 |  | 
DVD1607 (bispecific antibody, human IgG1, kappa) heavy: not shown light: ETTVTQSPSSLSASVGDRVTITCITSTDIDVDMNWYQQKPGKPPKLLISQGNTLRPGVPSRFSSSGSGTDFTFTISSLQPEDFATYYCLQSDNLPLTFGQGTKLEIKRTVAAPSVFIFPPEIVLTQSPDFQSVTPKEKVTITCRASQDIGSELHWYQQKPDQPPKLLIKYASHSTSGVPSRFSGSGSGTDFTLTINGLEAEDAGTYYCHQTDSLPYTFGPGTKVDIKRTVAAPSVFIFPPSDEQLKSGTASVVCLLNNFYPREAKVQWKVDNALQSGNSQESVTEQDSKDSTYSLSSTLTLSKADYEKHKVYACEVTHQGLSSPVTKSFNRGEC | 0.455 | 0.0031 |  | 
DVD1600 (bispecific antibody, human IgG1, kappa) heavy: not shown light: EIVLTQSPDFQSVTPKEKVTITCRASQDIGSELHWYQQKPDQPPKLLIKYASHSTSGVPSRFSGSGSGTDFTLTINGLEAEDAGTYYCHQTDSLPYTFGPGTKVDIKRTVAAPSVFIFPPDIQMTQSPSSLSASVGDRVTITCRASGNIHNYLTWYQQTPGKAPKLLIYNAKTLADGVPSRFSGSGSGTDYTFTISSLQPEDIATYYCQHFWSIPYTFGQGTKLQITRTVAAPSVFIFPPSDEQLKSGTASVVCLLNNFYPREAKVQWKVDNALQSGNSQESVTEQDSKDSTYSLSSTLTLSKADYEKHKVYACEVTHQGLSSPVTKSFNRGEC |  |  | 0.794 | 5.5
DVD1610 (bispecific antibody, human IgG1, kappa) heavy: not shown light: EIVLTQSPDFQSVTPKEKVTITCRASQNIGSELHWYQQKPDQSPKLLIKYASHSISGVPSRFSGSGSGTDFTLTINGLEAEDAATYYCHQSDTLPHTFGQGTKVDIKRTVAAPSVFIFPPDIQMTQSPSSLSASVGDRVTITCRASGNIHNYLTWYQQTPGKAPKLLIYNAKTLADGVPSRFSGSGSGTDYTFTISSLQPEDIATYYCQHFWSIPYTFGQGTKLQITRTVAAPSVFIFPPSDEQLKSGTASVVCLLNNFYPREAKVQWKVDNALQSGNSQESVTEQDSKDSTYSLSSTLTLSKADYEKHKVYACEVTHQGLSSPVTKSFNRGEC |  |  | 1 | 4.6
DVD1602 (bispecific antibody, human IgG1, kappa) heavy: not shown light: EIVLTQSPDFQSVTPKEKVTITCRASQDIGSELHWYQQKPDQPPKLLIKYASHSTSGVPSRFSGSGSGTDFTLTINGLEAEDAGTYYCHQTDSLPYTFGPGTKVDIKRTVAAPSVFIFPPDIQMTQSPSSLSASVGDRVTITCRASGNIHNYLTWYQQTPGKAPKLLIYNAKTLADGVPSRFSGSGSGTDYTFTISSLQPEDIATYYCQHFWSIPYTFGQGTKLQITRTVAAPSVFIFPPSDEQLKSGTASVVCLLNNFYPREAKVQWKVDNALQSGNSQESVTEQDSKDSTYSLSSTLTLSKADYEKHKVYACEVTHQGLSSPVTKSFNRGEC |  |  | 0.133 | 3.3
DVD1606 (bispecific antibody, human IgG1, kappa) heavy: not shown light: EIVLTQSPDFQSVTPKEKVTITCRASQDIGSELHWYQQKPDQPPKLLIKYASHSTSGVPSRFSGSGSGTDFTLTINGLEAEDAGTYYCHQTDSLPYTFGPGTKVDIKRTVAAPSVFIFPPDTVVTQSPAFLSVTPGEKVTITCITSTDIDVDMNWYQQKPDQPPKLLISQGNTLRPGVPSRFSSSGSGTDFTFTISSLEAEDAATYYCLQSDNLPLTFGQGTKLEIKRTVAAPSVFIFPPSDEQLKSGTASVVCLLNNFYPREAKVQWKVDNALQSGNSQESVTEQDSKDSTYSLSSTLTLSKADYEKHKVYACEVTHQGLSSPVTKSFNRGEC |  |  | 1.63 | 18.8
DVD1599 (bispecific antibody, human IgG1, kappa) heavy: not shown light: DIQMTQSPSSLSASVGDRVTITCRASGNIHNYLTWYQQTPGKAPKLLIYNAKTLADGVPSRFSGSGSGTDYTFTISSLQPEDIATYYCQHFWSIPYTFGQGTKLQITRTVAAPSVFIFPPEIVLTQSPDFQSVTPKEKVTITCRASQDIGSELHWYQQKPDQPPKLLIKYASHSTSGVPSRFSGSGSGTDFTLTINGLEAEDAGTYYCHQTDSLPYTFGPGTKVDIKRTVAAPSVFIFPPSDEQLKSGTASVVCLLNNFYPREAKVQWKVDNALQSGNSQESVTEQDSKDSTYSLSSTLTLSKADYEKHKVYACEVTHQGLSSPVTKSFNRGEC | 0.0048 | 0.0504 |  | 
DVD1601 (bispecific antibody, human IgG1, kappa) heavy: not shown light: DIQMTQSPSSLSASVGDRVTITCRASGNIHNYLTWYQQTPGKAPKLLIYNAKTLADGVPSRFSGSGSGTDYTFTISSLQPEDIATYYCQHFWSIPYTFGQGTKLQITRTVAAPSVFIFPPEIVLTQSPDFQSVTPKEKVTITCRASQDIGSELHWYQQKPDQPPKLLIKYASHSTSGVPSRFSGSGSGTDFTLTINGLEAEDAGTYYCHQTDSLPYTFGPGTKVDIKRTVAAPSVFIFPPSDEQLKSGTASVVCLLNNFYPREAKVQWKVDNALQSGNSQESVTEQDSKDSTYSLSSTLTLSKADYEKHKVYACEVTHQGLSSPVTKSFNRGEC | 0.0036 | 0.0264 |  | 
DVD1609 (bispecific antibody, human IgG1, kappa) heavy: not shown light: DIQMTQSPSSLSASVGDRVTITCRASGNIHNYLTWYQQTPGKAPKLLIYNAKTLADGVPSRFSGSGSGTDYTFTISSLQPEDIATYYCQHFWSIPYTFGQGTKLQITRTVAAPSVFIFPPEIVLTQSPDFQSVTPKEKVTITCRASQNIGSELHWYQQKPDQSPKLLIKYASHSISGVPSRFSGSGSGTDFTLTINGLEAEDAATYYCHQSDTLPHTFGQGTKVDIKRTVAAPSVFIFPPSDEQLKSGTASVVCLLNNFYPREAKVQWKVDNALQSGNSQESVTEQDSKDSTYSLSSTLTLSKADYEKHKVYACEVTHQGLSSPVTKSFNRGEC | 0.0038 | 0.173 |  | 
